Molecular target: the molecule itself
Assay: SEC

B1: Bacillus subtilis YsiA (natural protein, B. subtilis, UniProt P94548 1-194, looked up)
chain: MKQKRPKYMQIIDAAVEVIAENGYHQSQVSKIAKQAGVADGTIYLYFKNKEDILISLFKEKMGQFIERMEEDIKEKATAKEKLALVISKHFSLLAGDHNLAIVTQLELRQSNLELRQKINEILKGYLNILDGILTEGIQSGEIKEGLDVRLARQMIFGTIDETVTTWVMNDQKYDLVALSNSVLELLVSGIHNK
- stoichiometry N: 2
